{
  "source": "patent US8188225B2",
  "about": "“Inorganic phosphate assays” (Medical Research Council, priority 2005, dated 2012)",
  "key": {"[1]": {"test": "Fluorescence titration of labelled PBP with Pi (binding capacity)", "settings": "20° C.", "description": "This fluorescence represents the value when approximately Pi-free. The lines shown in FIG. 3 are a best fit to data from 0 to 4 μM added Pi, and a horizontal line."}, "[2]": {"test": "Stopped-flow association kinetics of Pi with rhodamine-PBP", "type": "binding", "text": "A stopped-flow apparatus was used to determine association and dissociation kinetics of Pi from rhodamine-PBP.\nA representative set of fluorescence traces is shown in FIG. 4A, all normalized to 100% for the initial intensity, but offset by 15% from each other. As the concentration of Pi and the rate increase, a significant proportion of the fluorescence trace is lost in the dead time of the stopped-flow instrument, causing an apparent decrease in intensity.\nIt is apparent that the rate reaches a limiting high value. This can be interpreted in terms of a two-step mechanism, binding itself (step 1), then a conformation change (step 2):\nThe fluorescence change occurs in step 2 and is likely to be concomitant with the closure of the binding cleft. It is this process that limits the overall rate at high Pi concentration. The data in FIG. 4B fitted to a hyperbola give 1/K1=2.2 μM and k+2+k−2=267 s^−1 (at 10° C.)."}, "[3]": {"test": "Fluorescence change of labelled PBP on Pi binding", "settings": "for fluorescence increase with Pi: Pi-bound vs Pi-free, typical product, 10 mM PIPES pH 7.0", "text": "Fluorescence spectra were obtained under the same conditions. Excitation was at 555 nm. The fluorescence signals were normalised to 100%, representing the maximum intensity in the presence of Pi."}, "[4]": {"test": "Stopped-flow dissociation kinetics of Pi from rhodamine-PBP", "settings": "10° C.", "method": "Absorbance spectra were obtained using a Beckman DU640 spectrophotometer. Fluorescence measurements were obtained on a Perkin Elmer LS50B or Cary Eclipse fluorimeter with xenon lamp. Stopped flow experiments were carried out on a HiTech SF61MX apparatus, with a mercury-xenon lamp and HiTech IS-2 software, a monochromator and 4 mm slits on the excitation light (550 nm for rhodamine) and a 570 nm cut-off filter on the emission. The stated concentrations are those in the mixing chamber, unless stated otherwise.\n0.25 unit mL^−1 PNPase and 100 μM 7-methylguanosine were present with the wild-type PBP to ensure that it was free of Pi prior to mixing."}, "[5]": {"settings": "similar titration, reference 25; cited from earlier work"}},
  "note": "Where two headings read alike, the source gives them in different places.",
  "data": [
    {"molecule": "rhodamine-PBP: E. coli PBP Ala17Cys/Ala197Cys (17/197) mutant doubly labelled with 6-IATR (conjugate, UniProt P0AG82 26-346, looked up, variant A17C A197C, doubly labelled with 6-IATR rhodamine, E. coli PBP Ala17Cys/Ala197Cys (17/197) mutant doubly labelled with 6-IATR) Phosphate-binding protein PstS: EASLTGAGATFPAPVYCKWADTYQKETGNKVNYQGIGSSGGVKQIIANTVDFGASDAPLSDEKLAQEGLFQFPTVIGGVVLAVNIPGLKSGELVLDGKTLGDIYLGKIKKWDDEAIAKLNPGLKLPSQNIAVVRRADGSGTSFVFTSYLAKVNEEWKNNVGTGSTVKWPIGLGGKGNDGIAAFVQRLPGAIGYVEYCYAKQNNLAYTKLISADGKPVSPTEENFANAAKGADWSKTFAQDLTNQKGEDAWPITSTTFILIHKDQKKPEQGTEVLKFFDWAYKTGAKQANDLDYASLPDSVVEQVRAAWKTNIKDSSGKPLY", "values": [
      {"measurement": "binding capacity for Pi", "setting": "[1]", "result": "~100", "unit": "%"},
      {"measurement": "k+2+k−2 (conformation change step 2)", "setting": "[2]; hyperbola fit, 10° C., 10 mM PIPES pH 7.0", "result": 267, "unit": "s⁻¹"},
      {"measurement": "Kd", "setting": "[2]; hyperbola fit, 10° C., 10 mM PIPES pH 7.0, read-out: 1/K1 (binding step 1)", "result": 2200, "unit": "nM"},
      {"measurement": "association kinetics compared with MDCC-PBP", "setting": "[2]; rhodamine-PBP at 10° C. vs MDCC-PBP at 5° C.", "result": "slower than that found with MDCC-PBP at 5 °C"},
      {"measurement": "fluorescence increase with Pi", "setting": "[3]", "result": 18, "unit": "fold"},
      {"measurement": "fluorescence increase with Pi, maximum / best batch", "setting": "[3]; emission at 578 nm (λmax), depends on purity of doubly labelled species, listed as A17C-A197C", "result": "up to 30 fold"},
      {"measurement": "Pi dissociation rate", "setting": "[4]; best fit exponential, excess 10 μM wild-type PBP", "result": 6.6, "unit": "s⁻¹"},
      {"measurement": "Kd", "setting": "[4]; read-out: overall dissociation constant k−2/k+2K1, from association and dissociation kinetics", "result": 60, "unit": "nM"}
    ]},
    {"molecule": "RRC2M: here the product of A17C-A197C mutant PBP labelled with the maleimide Rhodamine Red C2 (conjugate, UniProt P0AG82 26-346, looked up, variant A17C A197C, Rhodamine Red C2 maleimide labels) Phosphate-binding protein PstS: EASLTGAGATFPAPVYCKWADTYQKETGNKVNYQGIGSSGGVKQIIANTVDFGASDAPLSDEKLAQEGLFQFPTVIGGVVLAVNIPGLKSGELVLDGKTLGDIYLGKIKKWDDEAIAKLNPGLKLPSQNIAVVRRADGSGTSFVFTSYLAKVNEEWKNNVGTGSTVKWPIGLGGKGNDGIAAFVQRLPGAIGYVEYCYAKQNNLAYTKLISADGKPVSPTEENFANAAKGADWSKTFAQDLTNQKGEDAWPITSTTFILIHKDQKKPEQGTEVLKFFDWAYKTGAKQANDLDYASLPDSVVEQVRAAWKTNIKDSSGKPLY", "values": [
      {"measurement": "fluorescence increase with Pi", "setting": "[3]", "result": "little fluorescence change"}
    ]},
    {"molecule": "K229C-E302C: E. coli PBP Lys-229/Glu-302 to Cys double mutant, doubly labelled with 6-IATR (conjugate, UniProt P0AG82 26-346, looked up, variant K229C E302C, 6-IATR labels, E. coli PBP Lys-229/Glu-302 to Cys double mutant, doubly labelled with 6-IATR) Phosphate-binding protein PstS: EASLTGAGATFPAPVYAKWADTYQKETGNKVNYQGIGSSGGVKQIIANTVDFGASDAPLSDEKLAQEGLFQFPTVIGGVVLAVNIPGLKSGELVLDGKTLGDIYLGKIKKWDDEAIAKLNPGLKLPSQNIAVVRRADGSGTSFVFTSYLAKVNEEWKNNVGTGSTVKWPIGLGGKGNDGIAAFVQRLPGAIGYVEYAYAKQNNLAYTKLISADGKPVSPTEENFANAACGADWSKTFAQDLTNQKGEDAWPITSTTFILIHKDQKKPEQGTEVLKFFDWAYKTGAKQANDLDYASLPDSVVCQVRAAWKTNIKDSSGKPLY", "values": [
      {"measurement": "binding capacity for Pi", "setting": "[1]", "result": "~100", "unit": "%"}
    ]},
    {"molecule": "MDCC-PBP: prior-art MDCC-labelled PBP, label linked via a chiral centre on a succinimide (conjugate, UniProt P0AG82 26-346, looked up, MDCC fluorophore label, prior-art MDCC-labelled PBP, label linked via a chiral centre on a succinimide) Phosphate-binding protein PstS: EASLTGAGATFPAPVYAKWADTYQKETGNKVNYQGIGSSGGVKQIIANTVDFGASDAPLSDEKLAQEGLFQFPTVIGGVVLAVNIPGLKSGELVLDGKTLGDIYLGKIKKWDDEAIAKLNPGLKLPSQNIAVVRRADGSGTSFVFTSYLAKVNEEWKNNVGTGSTVKWPIGLGGKGNDGIAAFVQRLPGAIGYVEYAYAKQNNLAYTKLISADGKPVSPTEENFANAAKGADWSKTFAQDLTNQKGEDAWPITSTTFILIHKDQKKPEQGTEVLKFFDWAYKTGAKQANDLDYASLPDSVVEQVRAAWKTNIKDSSGKPLY", "values": [
      {"measurement": "binding capacity for Pi", "setting": "[5]", "result": 75, "unit": "%"}
    ]}
  ]
}
